In patent publication US5786145A, “Oligonucleotide competitors for binding of HIV RRE to REV protein and assays for screening inhibitors of this binding” (Medical Research Council, priority 1995, dated 1998):
Entries after “also recorded” stand apart in the source; their conditions may differ.

Test system: rev protein
Assay: Competition filter binding against 32P-labelled R7 (FIGS. 13, 17)
Parameters: species or system HIV-1
Conditions: 1.5 nM labelled R7, 24 nM rev, 0-60 nM competitor
Description: In these experiments, uniformly ^32 P-labelled R7 (1.5 nM) was competed against 0-60 nM unlabelled competitor RNA in the presence of 24 nM rev protein.
The mixtures for competition binding (0.5 ml) included 1.5 nM ^32 P-labelled R7 (ca. 20,000 cpm), 24 nM rev protein, 1.5 ug/ml calf thymus DNA, 0.67 ug/ml yeast rRNA, varying concentrations (0-60 nM) of unlabelled competitor RNA and 80 units/ml RNasin in TK buffer (50 mM Tris-HCl (pH7.9) and 20 mM KCl). Binding was allowed to take place for more than 15 min on ice, and each mixture was passed through a Millipore GS filter (a 2.5 cm disk with a pore size of 0.22 um) prewashed twice with 0.6 ml of ice-cold TK buffer. The filter was washed with 0.6 ml of cold TK buffer and dried. The radioactivity retained on the filter was counted by liquid scintillation, and the results were plotted on a graph (FIG. 13).

Molecule	competition for rev binding against labelled R7, result in words
RBC2-6X: only two oligonucleotides annealed, containing all sequences from the bubble region (chain 1 GCACUAUGGGCGCAGC; chain 2 GCUGCGGUACAGGCCAGA; chemistry not given here)	not sufficiently stable to form an effective rev binding site
RBC4: chemically synthesized RNA duplex, purine-rich bubble with 4 base pairs in the stem on each side (chain 1 UGUGGGCGCA; chain 2 UGCGGUACAC; RNA, backbone not given here)	no competitive binding abilities
RBC5: chemically synthesized RNA duplex, purine-rich bubble with 5 base pairs on each side (chain 1 GUGUGGGCGCAG; chain 2 CUGCGGUACACA; RNA, backbone not given here)	less
TWJ-C: three annealed synthetic oligoribonucleotides forming bubble stabilized by three-way junction; U85 replaced by C (chain 1 GCACUAUGGGCGCAGC; chain 2 GCUGCGGUACAGGCCAGA; chain 3 UCUGGCAUAGUGC; RNA, backbone not given here)	compete for rev binding with the same affinity
TWJ-U: three annealed synthetic oligoribonucleotides forming three-way junction; authentic HIV-1ARV2 sequence with G:U base pair (chain 1 GCACUAUGGGCGCAGC; chain 2 GCUGCGGUACAGGCCAGA; chain 3 UCUGGUAUAGUGC; RNA, backbone not given here)	compete for rev binding with the same affinity

Same assay, conditions: 1.5 nM labelled R7, 24 nM rev, 0-60 nM competitor; listed as RBC2,6X

Molecule	competition for rev binding against labelled R7, result in words
RBC2-6X: only two oligonucleotides annealed, containing all sequences from the bubble region (chain 1 GCACUAUGGGCGCAGC; chain 2 GCUGCGGUACAGGCCAGA; chemistry not given here)	unable to compete effectively

Biological target: T1, HIV-1 Rev (Human immunodeficiency virus 1, UniProt P04618 P04618:1-116)
Assay: competition; D1/2 vs labelled RRE RNA, 17 nM rev
Conditions: tags: none stated; heparin-Sepharose and Superose 6 purified; chain copies: oligomer (tetramer likely; about 4 per RBC6, 6-8 per full-length RRE at 50 mM KCl) stated; label: 32P uniform; stem-loop with altered bubble

Molecule	IC50 [nM]
R34 (dG35-G36) (ssRNA) RNA: GGGAGACCGGAAUUCUGCGCAGUGUCAUUGACGCUGCGGUACAGAAUUCCGGC	> 250

Biological target: T1, HIV-1 Rev
Assay: filter; non-specific binding only
Conditions: tags: none stated; heparin-Sepharose and Superose 6 purified; chain copies: oligomer (tetramer likely; about 4 per RBC6, 6-8 per full-length RRE at 50 mM KCl) stated; label: 32P uniform

Molecule	binding signal [% RNA bound at 10 nM rev]
R58 (ssRNA, [none]) RNA: GGGAGACCGGAAUUCUGGGCGCAGUGUCAUUGACGCUGCGAUACAGAAUUCCGGCA	6
R41 (ssRNA, [none]) RNA: GGGAGACCGGAAUUCUGGGGGCAGUGUCAUUGACGCUGCCGUACAGAAUUCCGGCA	2
R53 (ssRNA, [none]) RNA: GGGAGACCGGAAUUCUGGGCGCAGUGUCAUUGACGCUGCGGUGCAGAAUUCCGGCA	5
R47 (ssRNA, [none]) RNA: GGGAGACCGGAAUUCUGAGCGCAGUGUCAUUGACGCUGCGGUACAGAAUUCCGGCA	6
R40 (ssRNA, [none]) RNA: GGGAGACCGGAAUUCUCGGCGCAGUGUCAUUGACGCUGCGGUAGAGAAUUCCGGCA	3
R56 (ssRNA, [none]) RNA: GGGAGACCGGAAUUCUGGGUGCAGUGUCAUUGACGCUGCAGUACAGAAUUCCGGCA	6
R49 (ssRNA, [none]) RNA: GGGAGACCGGAAUUCUGGGCGCAGUGUCAUUGACGCUGCGUACAGAAUUCCGGCA	2
R46 (ssRNA, [none]) RNA: GGGAGACCGGAAUUCUGGGCGCAGUGUCAUUGACGCUGCGGUCAGAAUUCCGGCA	1
R45 (ssRNA, [none]) RNA: GGGAGACCGGAAUUCUGGGCGCAGUGUCAUUGACGCUGCGGACAGAAUUCCGGCA	6

Same assay, conditions: tags: none stated; heparin-Sepharose and Superose 6 purified; chain copies: oligomer (tetramer likely; about 4 per RBC6, 6-8 per full-length RRE at 50 mM KCl) stated; label: 32P uniform; stem-loop with G,G bulge

Molecule	binding signal [% RNA bound at 10 nM rev]
R36 (dG59-A61) (ssRNA) RNA: GGGAGACCGGAAUUCUGGGCGCAGUGUCAUUGACGCUGCGCAGAAUUCCGGCA	4

Same assay, conditions: tags: none stated; heparin-Sepharose and Superose 6 purified; chain copies: oligomer (tetramer likely; about 4 per RBC6, 6-8 per full-length RRE at 50 mM KCl) stated; label: 32P uniform; stem-loop with altered bubble

Molecule	binding signal [% RNA bound at 10 nM rev]
R34 (dG35-G36) (ssRNA) RNA: GGGAGACCGGAAUUCUGCGCAGUGUCAUUGACGCUGCGGUACAGAAUUCCGGC	3
R37 (ssRNA) RNA: GGGAGACCGGAAUUCUAAACGCAGUGUCAUUGACGCUGCGGUAUAGAAUUCCGGCA	5

Test system: rev protein
Assay: Saturation filter binding of rev to labelled RNA transcripts
Parameters: species or system HIV-1
Conditions: Table I; 10 nM rev, 50 mM KCl
Description: Rev protein was expressed and purified as described (33) or further purified by chromatography on Heparin-Sepharose. Rev was applied to Heparin columns in a buffer containing 200 mM NaCl/50mM Tris-HCl pH8.0/1 mM DTT/0.1 mM EDTA 0.1% Triton X-100 and eluted in buffer containing 2M NaCl. After gel filtration on Superose 6 (prep grade) columns equilibrated with 200 mM NaCl/50 mM Tris-HCl pH8.0/1 mM DTT/0.1 mM EDTA, the rev protein appeared homogeneous on SDS-polyacrylamide gels and free of RNA contaminants. Rev concentrations were determined by amino acid analysis of the purified protein.
DNA inserts containing RRE-related sequences were cloned between the EcoRI (5') and HindIII (3') sites of pGEM 1, either by cloning PCR products or by cloning annealed pairs of synthetic oligonucleotides. RNA transcripts for binding experiments were prepared by transcription of HindIII cut plasmids using T7 RNA polymerase and purified by gel electrophoresis. These transcripts carry a 5' extension of 15 nucleotides contributed by the vector and an extra A residue at the 3' end from the HindIII site, as described above.
For filter binding assays, each reaction mixture contained 20 pg of uniformly labelled RNA probe (approximately 500 cpm/pg RNA), […] sonicated salmon sperm DNA, […] yeast tRNA, 40 units RNasin (Promega) in […] TK buffer (43 mM Tris-HCl pH8.0, 50 mM KCl). Incubation was at 4° C. for 15 minutes in the presence of 0 to 10 nM purified rev protein. To measure binding, each reaction mixture was applied under gentle vacuum to a 0.45 um Millipore filter which had been pre-wetted with TK buffer. The filters were washed with […] TK buffer, dried, and radioactivity counted by liquid scintillation.
Filter binding assays contained 20 pg uniformly labelled RNA probe (500 dpm per pg RNA), 1 μg salmon sperm DNA, 0.45 μg yeast tRNA and 40 units RNasin (Promega) in 500 μl buffer containing 43 mM Tris-HCl pH 8.0, 50 mM KCl. Mutations in the purine-rich "bubble" sequence (numbered as shown in FIG. 2) were introduced into the R33 stem-loop structure (FIG. 3d) by site-directed mutagenesis.

Molecule	% RNA bound (10 nM rev) [%]
R36 (GGGAGACCGGAAUUCUGGGCGCAGUGUCAUUGACGCUGCGCAGAAUUCCGGCA; chemistry not given here)	4
R37 (GGGAGACCGGAAUUCUAAACGCAGUGUCAUUGACGCUGCGGUAUAGAAUUCCGGCA; chemistry not given here)	5

Same assay, conditions: saturation filter binding of T7 transcripts; read-out: Kd for rev binding

Molecule	Kd [nM]
R19: transcript containing RRE sequences 33 to 66 (GGGAGACCGGAAUUCUGGGCGCAGUGUCAUUGACGCUGACGGUACAGGCA; unmodified RNA)	1 to 3
R22: residue A56 is deleted from R20 (GGGAGACCGGAAUUCUGGGCGCAGUGUCAUUGACGCUGCGGUACAGGCA; chemistry not given here)	1 to 3
R38: stem-loop structure C39 to A56 replaced by the stable loop sequence CUUCGG (GGGAGACCGGAAUUCUGGGCGCUUCGGCGGUACAGA; chemistry not given here)	1 to 3

Same assay, conditions: saturation filter binding, 0 to 10 nM rev

Molecule	rev binding, result in words
R29: residues altered in the apex of the loop to give the anti-sense sequence (GGGAGACCGGAAUUCUGGGCGCAGUGUCAAUGACGCUGACGGUACAGGCA; chemistry not given here)	normal rev binding activity
R30: base pairing in the upper stem structure altered to give the anti-sense sequence (GGGAGACCGGAAUUCUGGGCGCAGCGUCAUUGACACUGCGGUACAGGCA; chemistry not given here)	normal rev binding activity
R36 (GGGAGACCGGAAUUCUGGGCGCAGUGUCAUUGACGCUGCGCAGAAUUCCGGCA; chemistry not given here)	loss of rev binding
R37 (GGGAGACCGGAAUUCUAAACGCAGUGUCAUUGACGCUGCGGUAUAGAAUUCCGGCA; chemistry not given here)	abolished specific rev binding
26-92: RRE fragment 26-92 T7 transcript (nucleic acid, unmodified RNA, RRE fragment 26-92 T7 transcript) GGGAGACCGGAAUUCAGCACUAUGGGCGCAGUGUCAUUGACGCUGACGGUACAGGCCAGACAAUUAUUGUCUGGUAUAGUGCA	same affinity as the full-length RRE sequence; also recorded: Identical binding behaviour
26-72: RRE fragment 26-72 T7 transcript (nucleic acid, unmodified RNA, RRE fragment 26-72 T7 transcript) GGGAGACCGGAAUUCAGCACUAGGGCGCAGUGUCAUUGACGCUGAGGGUACAGGCCAGACAAUUAUA	does not bind rev
1-96: RRE fragment 1-96 T7 transcript (nucleic acid, unmodified RNA, RRE fragment 1-96 T7 transcript) GGGAGACCGGAAUUCCCUUGGGUUCUUGGGAGCAGCAGGAAGCACUAUGGGCGCAGUGUCAUUGACGCUGACGGUACAGGCCAGACAAUUAUUGUCUGGUAUAGUGCAACA	same affinity as the full-length RRE sequence
